Assay results from the supplement of paper PMC12764529.
± gives the half width of the 95% confidence interval.

Tests used:
[1] = folding stability dG unfold (combined trypsin and chymotrypsin); higher = more stable
Method in brief: (§1)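 Designed mini-proteins (under 80 residues, no cysteine) in a PA-tagged cDNA display construct were digested with trypsin and chymotrypsin. Each protease was used at 11 concentrations (threefold dilutions) plus a no-protease condition, followed by sequencing. K50 was inferred by Bayesian fitting of sequencing counts, and unfolding free energy was derived against a sequence-predicted unfolded-state K50 and a shared folded-state K50, per protease or combined. Only designs with AlphaFold2 dimer inter-PAE above 15 were kept.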

[2] = folding stability dG unfold from trypsin proteolysis; higher = more stable
Method in brief: as §1

[3] = folding stability dG unfold from chymotrypsin proteolysis; higher = more stable
Method in brief: as §1

Row | Sequence | folding stability dG unfold [1] | folding stability dG unfold [2] | folding stability dG unfold [3]
1 | SAGGSAGGSAGMTPGPAPRPKVTVEPSLSEVPEDDSIVTTTTVTFPDTGETTSSTTTSSASAGGSAGGSAGG [r17_31_JUSTAS] | 1 ± 0.084 kcal/mol | 0.337 ± 0.064 kcal/mol | 1.24 ± 0.051 kcal/mol
2 | SAGGSAGGSAGMKVKTDPSSGPTVNKAYLENGTLILTTVTYDPSNGTTSTTTTVVPLSLLSAGGSAGGSAGG [r17_287_JUSTAS] | 0.823 ± 0.21 kcal/mol | 0.433 ± 0.12 kcal/mol | 1.23 ± 0.22 kcal/mol
3 | SAGGSAGGSAPPRRVTIEYDPDSGMFKVKVPGGKEREIEGMPPNQIEEQAKDYGIDRVEIVSAGGSAGGSAG [r3_78_TrROS] | -0.0794 ± 0.18 kcal/mol | 0.205 ± 0.16 kcal/mol | -0.286 ± 0.41 kcal/mol
4 | SAGGSAGGSAGGDLNDAEIIDIYRDPDSDYYYAVFRGPDGGTYLVRFDPNSDRVEVIPLSAGGSAGGSAGGS [r10_674_TrMRF] | 3.05 ± 0.059 kcal/mol | 2.27 ± 0.1 kcal/mol | 3.387 ± 0.024 kcal/mol
5 | SAGGSAGGSAMPEPVLIVVEVESLEEAKKLAEELAVEGVKVEVDPESGLVKIEIEKESLLESAGGSAGGSAG [r3_186_TrMRF] | 1.12 ± 0.11 kcal/mol | 1.03 ± 0.092 kcal/mol | 1.23 ± 0.08 kcal/mol
6 | GSVTIELVVPKGVDIPLALLAGIASTGKGKVTARISNPLSGKEIEVTFPGGGLGEAGVTEGINVVRLTVYGS [r1_238_TrMRF] | 1.2 ± 0.19 kcal/mol | 0.869 ± 0.1 kcal/mol | 1.29 ± 0.11 kcal/mol
7 | SAMVTYDPEKGVFEAEIEVGGETLRVTVVRDPETGEVVAVVERPGSGEPVVLPLPFKSLSDVIRYAEEHSAG [r14_803_TrMRF] | 2.36 ± 0.11 kcal/mol | 2.3 ± 0.07 kcal/mol | 2.49 ± 0.044 kcal/mol
8 | SAGGSAGGSAGGKIENWKITKVETKLHPNGFPYLVIELSNEKKKIRVLIYPNGELKAFEESAGGSAGGSAGG [r7_675_TrMRF] | 3.82 ± 0.31 kcal/mol | 2.8 ± 0.42 kcal/mol | 4.07 ± 0.21 kcal/mol
9 | SAGGSALVIKKVEPNKGYLVFESKEDDKPIVRVKLETLVAALEEDRIPPALRRLLAENPDQVFNPVSAGGSA [r15_359_TrMRF] | 1.9 ± 0.21 kcal/mol | 2.22 ± 0.12 kcal/mol | 1.75 ± 0.25 kcal/mol
10 | SAGGSAPKIRVEIEIDPDNGTIKLEVQHDGKPVFEMTMRIDPNGKIKEMKFTFYVDPDNGKLEIMMSAGGSA [r15_770_TrROS] | 4.43 ± 0.17 kcal/mol | 3.68 ± 0.25 kcal/mol | 4.59 ± 0.26 kcal/mol
11 | SAGGSAGGSAGGSMSSSSSPLPDEDGLVTRGKSSEPSPPFTWTTTVDSSGVPSTTVTSLESAGGSAGGSAGG [r7_187_JUSTAS] | 0.323 ± 0.07 kcal/mol | -0.484 ± 0.1 kcal/mol | 0.602 ± 0.051 kcal/mol
12 | SAGGGVTITASPDGTVTITIGGKPITVPVHPGATLEFRVEPTPDGRPAVTITWTSPDGTPYTFTFTGSAGGS [r16_231_TrMRF] | 4.89 ± 0.053 kcal/mol | 4.23 ± 0.14 kcal/mol | 5.015 ± 0.036 kcal/mol
13 | SPYFMFPIDDIKVEKERDPDDGKKTYEMRVEGPNGNPFRIEFNPKDGMIHIEFPPGMKLRPGDTFELTIRSA [r9_509_TrROS] | 1.85 ± 0.21 kcal/mol | 2.09 ± 0.088 kcal/mol | 1.59 ± 0.2 kcal/mol
14 | SAGGSAGGSAGGIGDDGKVRVALLDKNGKVLGPVYVTKVEEGKIEVEAEPDYTLVLNLESAGGSAGGSAGGS [r10_1257_TrMRF] | 0.329 ± 0.15 kcal/mol | -0.0768 ± 0.11 kcal/mol | 0.487 ± 0.12 kcal/mol
15 | SAGMETVVTYDPSNGTVTTTTTVFAPDGTPLGSLSTTTPIGGGTITYTTITIDPETGTVTTTTTAYPGASAG [r5_34_JUSTAS] | 4.25 ± 0.11 kcal/mol | 2.77 ± 0.093 kcal/mol | 4.49 ± 0.086 kcal/mol
16 | SAGGSAGGSAGGPRTIYIPVKVEPDPNGKWKIDIEEIAKNLPDVKITSITPNYIKITFPASAGGSAGGSAGG [r11_771_TrROS] | 1.08 ± 0.16 kcal/mol | 0.398 ± 0.18 kcal/mol | 1.38 ± 0.13 kcal/mol

Row | Sequence | folding stability dG unfold [1] | folding stability dG unfold [2] | folding stability dG unfold [3]
17 | SAIKLPDGFEIKEVEFTPDGNVTIKIEVKKYSFMIYNPDNGQIQHIPPGKEQEITMPPNEPMRIWVIKPSAG [r14_385_TrROS] | 1.48 ± 0.36 kcal/mol | 1.45 ± 0.13 kcal/mol | 1.58 ± 0.26 kcal/mol
18 | SAGGSASNIKTEEKEYPDGKVVVKYSSDPNITYVYYYPPGGLELVETLDSNGNVISKKLVPKGKLISAGGSA [r15_419_JUSTAS] | 0.832 ± 0.06 kcal/mol | 0.607 ± 0.049 kcal/mol | 0.959 ± 0.097 kcal/mol
19 | SAGSITITIETLPDGTIRITIPYTSEEEAKKVAEEVAKEIAEKLGEEVIKFEVTPEDDDTLILTIPIKKSAG [r5_772_JUSTAS] | 1.78 ± 0.28 kcal/mol | 1.15 ± 0.15 kcal/mol | 1.81 ± 0.092 kcal/mol
20 | SAGMETVTVEVDGATITFVKNEDGTVTAIVTYPNGEVEIYNADGELIRRERLPNGLVVFEFTKEELEKLSAG [r5_457_TrROS_Hall] | 1.93 ± 0.14 kcal/mol | 1.19 ± 0.057 kcal/mol | 2.09 ± 0.068 kcal/mol
21 | SAGGALEKILEAIENAPTSVPEVTVEIELPTGTLKATITNKGKPVLITIELTHPDGSKSTITLTFSLSAGGS [r16_642_TrMRF] | 3.78 ± 0.063 kcal/mol | 2.78 ± 0.091 kcal/mol | 4.28 ± 0.079 kcal/mol
22 | SAGGSAMTVTKVGSETKTDPAKGIVTTTEITKLPTGGLTKTVTTTTIEGGKVKSSTTTTTAIPVGTSAGGSA [r15_283_JUSTAS] | 0.104 ± 0.085 kcal/mol | -0.156 ± 0.061 kcal/mol | 0.266 ± 0.065 kcal/mol
23 | SAGGSAGGSMKKIKVKIKITDKDGNKKEVEAEIFFDEETGKLYIKLPNGEVKEISLEDIEIVESAGGSAGGS [r12_256_TrROS_Hall] | 3.63 ± 0.09 kcal/mol | 2.46 ± 0.08 kcal/mol | 4.01 ± 0.069 kcal/mol
24 | SAGGSAGGSAGSLLTETSESVINDTKITHVLEIDPSSGALRLILETKHPDPGIVTVELLPSAGGSAGGSAGG [r17_242_JUSTAS] | 0.885 ± 0.072 kcal/mol | 0.943 ± 0.023 kcal/mol | 0.857 ± 0.061 kcal/mol
25 | SAGGPLSEEELEALRKALEAARAAGAETVTLTATLTVTRTVTLPDGSTRTETRTLTLTLTVTLPPEESAGGS [r8_203_TrROS_Hall] | 4.45 ± 0.12 kcal/mol | 3.74 ± 0.1 kcal/mol | 4.73 ± 0.079 kcal/mol
26 | SAAEIDEDGTIRIVLSEEAVKNMSEEELKALAEELAKLLPPGAKVEIKIVKPKPVKEEKKLYDKDGKEVSAG [r14_312_TrROS_Hall] | 0.788 ± 0.15 kcal/mol | 1.19 ± 0.083 kcal/mol | 0.0971 ± 0.054 kcal/mol
27 | SAGGMEVREIDVENEDGHNVKIEIWWMPGEGWIMVKIEGPNPALIDDIQKEIGLPILEVMKDGYLMIKSAGG [r13_937_TrROS] | 2.22 ± 0.091 kcal/mol | 1.16 ± 0.03 kcal/mol | 2.6 ± 0.033 kcal/mol
28 | SAGGSAETIETVSSTFPVFSEDDKPVAVVKTYIFKFEDGELVLTEVFTPDGKPVAVKVASLDEFLNSAGGSA [r15_755_TrMRF] | 1.56 ± 0.071 kcal/mol | 1.27 ± 0.025 kcal/mol | 1.7 ± 0.045 kcal/mol
29 | SAGGSAGGSAGGSLEAIRKAIEEAQKNGHTVPISVRHPNGKDFTFEIEIQVVKPPPDEKSAGGSAGGSAGGS [r10_573_TrROS] | 1.46 ± 0.13 kcal/mol | 1.28 ± 0.043 kcal/mol | 1.47 ± 0.066 kcal/mol
30 | SAETRTLTIRIPAKDLTPEQIRALLRALLPEDATITEVRIERDEDGYITVTIVVTNPDGSKQEIRLVFPSAG [r14_30_TrROS_Hall] | 2.6 ± 0.085 kcal/mol | 2.527 ± 0.024 kcal/mol | 2.64 ± 0.031 kcal/mol
31 | SAGGSAGGSAGSGTMFDFGSASVETLEEDPNGRVLVKVTLPDSEYLLEIVKGELVKIEPRSAGGSAGGSAGG [r17_396_JUSTAS] | 0.569 ± 0.12 kcal/mol | -0.274 ± 0.28 kcal/mol | 0.858 ± 0.059 kcal/mol
